Test results taken from publication PMC11791182, “Molecular mechanism targeting condensin for chromosome condensation” (The EMBO Journal, 2024).

B1: GFP-Sgo1 (472-530) [S. cerevisiae] / Ycg1 (6–932, Δ499–555)-Brn1 (384–529) [S. cerevisiae] (parent complex)
chain 1: KNEKKLTSNNSPKKSSPLLDITNKSENKKKSTRTKKLFKNAIVNNLSDENSTTRPSKSS
chain 2: GIDINTKIFNSVAEVFQKAQGSYAGHRKHIAVLKKIQSKAVEQGYEDAFNFWFDKLVTKILPLKKNEIIGDRIVKLVAAFIASLERELILAKKQNYKLTNDEEGIFSRFVDQFIRHVLRGVESPDKNVRFRVLQLLAVIMDNIGEIDESLFNLLILSLNKRIYDREPTVRIQAVFCLTKFQDEEQTEHLTELSDNEENFEATRTLVASIQNDPSAEVRRAAMLNLINDNNTRPYILERARDVNIVNRRLVYSRILKSMGRKCFDDIEPHIFDQLIEWGLEDRELSVRNACKRLIAHDWLNALDGDLIELLEKLDVSRSSVCVKAIEALFQSRPDILSKIKFPESIWKDFTVEIAFLFRAIYLYCLDNNITEMLEENFPEASKLSEHLNHYILLRYHHNDISNDSQSHFDYNTLEFIIEQLSIAAERYDYSDEVGRRSMLTVVRNMLALTTLSEPLIKIGIRVMKSLSINEKDFVTMAIEIINDIRDDDIEKQESESDIINNLPPEKEASSATIVLCLTRSSYMLELVNTPLTENILIASLMDTLITPAVRNTAPNIRELGVKNLGLCCLLDVKLAIDNMYILGMCVSKGNASLKYIALQVIVDIFSVHGNTVVDGEGKVDSISLHKIFYKVLKNNGLPECQVIAAEGLCKLFLADVFTDDDLFETLVLSYFSPINSSNEALVQAFAFCIPVYCFSHPAHQQRMSRTAADILLRLCVLWDDLQSSVIPEVDREAMLKPNIIFQQLLFWTDPRNLVNQTGSTKKDTVQLTFLIDVLKIYAQIEKKEIKKMIITNINAIFLSSEQDYSTLKELLEYSDDIAENDNLDNVSKNALDKLRNNLNSLIEEINERSETQTKDENNTANDQYSSILGN
chain 3: SIFEKDLMAYFDENLNRNWRGREHWKVRNFKKANLVNKESDLLEETRTTIGDTTDKNTTDDKSMDTKKKHKQKKVLEIDFFKTDDSFEDKVFASKGRTKIDMPIKNRKNDTHYLLPDDFHFSTDRITRLFIKPGQKMSLFSHRKHT

Variants of: B1
Assay: co-immunoprecipitation (anti-GFP-coupled beads), silver-stained SDS-PAGE band quantification; 25 mM HEPES pH 7.5, 500 mM NaCl, 10% glycerol, 1 mM DTT, 0.1% NP-40; 2.5 h incubation; parent: 1; read off a plot

First: chain 1 KNEKKLTSNNSPKKSSPLLDITNKSENKKKSTRTKKLFKNAEENNLSDENSTTRPSKSS [chain 1 I42E, chain 1 V43E]
Second: chain 1 KNEKKLTSNNSPKKSSPLLDITNKSENKKKSTRTKKEEKNAIVNNLSDENSTTRPSKSS [chain 1 L37E, chain 1 F38E]
The ratio to parent of the first is higher: about 0.51 for the first, about 0.37 for the second.

First: chain 1 KNEKKLTSNNSPKKSSPLLDITNKSENKKKSTRTKKLFKNAIVNNESDENSTTRPSKSS [chain 1 L46E]
Second: chain 1 KNEKKLTSNNSPKKSSPLLDITNKSENKKKSTRTKKEEKNAEENNESDENSTTRPSKSS [chain 1 L37E, chain 1 F38E, chain 1 I42E, chain 1 V43E, chain 1 L46E]
The ratio to parent of the first is lower: about 0.66 for the first, about 0.84 for the second.

chain 1 KNEKKLTSNNSPKKSSPLLDITNKSENKKKSTRTKKEEKNAEENNLSDENSTTRPSKSS [chain 1 L37E, chain 1 F38E, chain 1 I42E, chain 1 V43E] was tested, and the ratio to parent was about 0.54.
